Results published in article PMC8790569.

Tests used:
[1] = test system: T1, AnLexA (Anabaena sp. strain PCC 7120), ORF:0695c96d; assay: EMSA; conditions: 20 mM Tris-Cl pH 7.5, 1 mM EDTA, 20 ul, RT 30 min; 10% native PAGE in 0.5x TBE
T1 sequence: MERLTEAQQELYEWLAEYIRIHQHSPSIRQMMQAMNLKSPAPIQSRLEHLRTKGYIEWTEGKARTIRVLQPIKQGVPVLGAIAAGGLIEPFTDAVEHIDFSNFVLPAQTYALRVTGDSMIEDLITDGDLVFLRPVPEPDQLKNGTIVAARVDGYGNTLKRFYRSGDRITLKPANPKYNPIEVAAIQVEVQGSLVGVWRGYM

[2] = test system: T2, AzuR (Anabaena sp. strain PCC 7120), ORF:06435f25; assay: EMSA; conditions: 20 mM Tris-Cl pH 7.5, 1 mM EDTA, 20 ul, RT 30 min; 10% native PAGE in 0.5x TBE
T2 sequence: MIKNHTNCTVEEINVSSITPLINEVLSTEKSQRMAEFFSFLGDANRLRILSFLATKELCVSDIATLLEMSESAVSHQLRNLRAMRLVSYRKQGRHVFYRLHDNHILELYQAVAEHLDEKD

[3] = molecular target: AzuR (Alr0831) (Anabaena sp. strain PCC 7120); assay: SEC; Superdex 75, 20 mM Tris, 100 mM NaCl, pH 7.5, 25 °C, 0.5 ml/min; calibrated with gel filtration markers
[4] = molecular target: AzuR (Alr0831) (Anabaena sp. strain PCC 7120); assay: cross-linking; purified AzuR (5 ug) with 10 mM glutaraldehyde, room temperature, 10-15 min, 10 mM Tris pH 7.5; cracking buffer without DTT; 15% SDS-PAGE, Coomassie

Row | Substance | binding [1] | binding [2] | stoichiometry N [3] | stoichiometry N [4]
1 | AAACGTATTATATAACCTAATTGTTACATTTTATTAAGCAATACTTGAACATCTGTTCAGGTATTGTAGTGTAATCACAAGTGAAAACGGAGGAAATAAT (double strand) [PnmtA (100 bp upstream of nmtA ORF)] | no binding | binds | – | –
2 | AzuR (Alr0831) (natural protein) | – | – | 2 | 2
